Test results as given in paper PMC9789324 (Food Chemistry: Molecular Sciences, 2022).

Key:
Assay in all cases: crystal structure
[1] = target: Len c 1, lentil vicilin (7S globulin) core region (Lens culinaris Medicus (lentil))
[2] = target: Pis s 1, pea vicilin (7S globulin) core region (Pisum sativum L. (pea))
[3] = target: the molecule itself

Len c 1, lentil vicilin (7S globulin) core region (domain or fragment)
stoichiometry N [1]: 3

Pis s 1, pea vicilin (7S globulin) core region (domain or fragment)
stoichiometry N [2]: 3

B1: Pis s 2, pea convicilin (7S globulin) core region (domain or fragment, Pisum sativum L. (pea))
chain: SQERRNPFLFKSNKFLTLFENENGHIRLLQRFDKRSDLFENLQNYRLVEYRAKPHTIFLPQHIDADLILVVLSGKAILTVLSPNDRNSYNLERGDTIKLPAGTTSYLVNQDDEEDLRLVDLVIPVNGPGKFEAFDLAKNKNQYLRGFSKNILEASYNTRYETIEKVLLEEQEKDRKRRQQGEETDAIVKVSREQIEELKKLAKSSSKKSLPSEFEPINLRSHKPEYSNKFGKLFEITPEKKYPQLQDLDLFVSCVEINEGALMLPHYNSRAIVVLLVNEGKGNLELLGLKNEQQEREDRKERNNEVQRYEARLSPGDVVIIPAGHPVAITASSNLNLLGFGINAENNERNFLSGSDDNVISQIENPVKELTFPGSVQEINRLIKNQKQSHFANA
stoichiometry N [3]: 3
